These results are taken from patent US20090018101.

For series [1], the target named is M.TaqI (DNA adenine-N6 methyltransferase) (UniProt P14385). To be noted: natural cofactor AdoMet; R.TaqI protection assay, 60 C 4 h; analogs 3: 10, 4: <5, 5: 80, 6: 10, 7: 1280, 8: 640, 9: 640; cofactor 10: 11 u/ug (1 h).
Series [2] deals with M.BcnIB (DNA cytosine-N4 methyltransferase). To be noted: natural cofactor AdoMet; R.BcnI protection assay, 37 C; analogs 3-5: <7, 6: 0, 7: 28, 8: 14.
A further series has as its system M.TaqI V21G V21G. The note with it: natural cofactor AdoMet; R.TaqI protection assay; analogs 3: 5, 4: <5, 5: 640, 6: 20, 7: 80, 8: 80, 9: 2560.
In series [3] the test system is M.SssI Q142A (DNA cytosine-C5 methyltransferase) Q142A (Spiroplasma sp.?). The note with it: natural cofactor AdoMet; R.BstUI protection assay, 37 C; analogs 5: 1.2, 7: 0.6.
The test system of series [4] is M.HhaI (DNA cytosine-C5 methyltransferase). The note with it: natural cofactor AdoMet; R.Hin6I protection assay, 37 C; analogs 3: <4, 4: 0, 5: 7, 6: <4, 7: 29, 8: <4.
For the next series, the target named is T1, M.HhaI Q82A Q82A (UniProt P05102).
T1 sequence: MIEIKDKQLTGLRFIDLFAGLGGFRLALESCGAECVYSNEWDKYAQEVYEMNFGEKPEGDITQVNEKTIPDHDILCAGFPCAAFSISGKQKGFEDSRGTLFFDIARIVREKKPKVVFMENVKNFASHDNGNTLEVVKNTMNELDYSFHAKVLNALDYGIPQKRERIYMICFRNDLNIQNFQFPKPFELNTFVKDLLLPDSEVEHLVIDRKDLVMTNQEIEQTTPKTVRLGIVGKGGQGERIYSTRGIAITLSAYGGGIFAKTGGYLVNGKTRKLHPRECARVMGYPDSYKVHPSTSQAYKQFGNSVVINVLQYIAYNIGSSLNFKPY
The note with it: natural cofactor AdoMet; R.Hin6I protection assay; analogs 3: 7, 4: 0, 5: 29, 6: <4, 7: 58, 8: <4.

M.TaqI (DNA adenine-N6 methyltransferase), sequence (P14385 whole entry): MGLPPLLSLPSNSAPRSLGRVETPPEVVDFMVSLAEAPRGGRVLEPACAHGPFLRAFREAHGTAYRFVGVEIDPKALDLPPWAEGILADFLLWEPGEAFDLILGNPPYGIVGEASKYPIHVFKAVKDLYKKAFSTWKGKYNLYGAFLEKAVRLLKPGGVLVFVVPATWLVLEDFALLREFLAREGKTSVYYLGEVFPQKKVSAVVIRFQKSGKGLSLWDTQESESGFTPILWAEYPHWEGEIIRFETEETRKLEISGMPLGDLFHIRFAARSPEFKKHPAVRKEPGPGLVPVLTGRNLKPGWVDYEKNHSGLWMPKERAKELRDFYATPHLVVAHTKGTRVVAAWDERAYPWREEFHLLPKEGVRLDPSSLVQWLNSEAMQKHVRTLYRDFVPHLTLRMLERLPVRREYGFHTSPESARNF

As to phage lambda DNA (48502 bp), the activity amounted to 41000 u/µg in series [1]; 444 u/µg in series [2]; 320 u/µg with M.TaqI V21G V21G; 20 u/µg in series [3]; 460 u/µg in series [4]; 115 u/µg with M.HhaI Q82A Q82A.
